Assay results reported in publication PMC7181634, “Enhanced succinic acid production by Mannheimia employing optimal malate dehydrogenase” (Nature Communications, 2020).
Changes are numbered by the printed parent chain. Numbers in names are those of the source.

B1: MsMDH ([Mannheimia] succiniciproducens MBEL55E) (protein)
chain: MKVAVLGAAGGIGQALALLLKLQLPAGSSLSLYDVAPVTPGVAKDLSHIPTDVVVEGFAGTDPSEALKGADIVLISAGVARKPGMTRADLFGVNAGIIRSLTEKVAEQCPKACVGIITNPVNAMVAIAAEVLKKAGVYDKRKLFGITTLDILRAETFIAELKGLDPTRVTIPVIGGHSGVTILPLLSQVQNVEWSSEEEIIALTHRIQNAGTEVVEAKAGGGSATLSMAQAAARFALALVKASQGAKVVECAYVEGDGKYARFFAQPVRLGTEGVEEYLTLGKLSAFEEKALNAMLETLQGDIKSGEDFING
notes: full length, C-terminal 6xHis (pET30a), expressed in E. coli BL21(DE3), Ni-NTA, ion exchange and size exclusion
B2: CgMDH (Corynebacterium glutamicum ATCC 13032) (protein)
chain: MNSPQNVSTKKVTVTGAAGQISYSLLWRIANGEVFGTDTPVELKLLEIPQALGGAEGVAMELLDSAFPLLRNITITADANEAFDGANAAFLVGAKPRGKGEERADLLANNGKIFGPQGKAINDNAADDIRVLVVGNPANTNALIASAAAPDVPASRFNAMMRLDHNRAISQLATKLGRGSAEFNNIVVWGNHSATQFPDITYATVGGEKVTDLVDHDWYVEEFIPRVANRGAEIIEVRGKSSAASAASSAIDHMRDWVQGTEAWSSAAIPSTGAYGIPEGIFVGLPTVSRNGEWEIVEGLEISDFQRARIDANAQELQAEREAVRDLL
notes: as for B1
B3: MsMDH ([Mannheimia] succiniciproducens MBEL55E; G11Q) (protein)
chain: B1 chain with G11Q
notes: as for B1

Tests used:
[1] = substrate: O=C(O)CC(=O)C(=O)O; assay: purified protein; assay type: biochemical, [Mannheimia] succiniciproducens; settings: pH 7.0, 0.1 M Tris-HCl, NADH co-substrate, room temperature
[2] = substrate: O=C(O)CC(=O)C(=O)O; assay: purified protein; assay type: biochemical, Corynebacterium glutamicum; settings: pH 7.0, 0.1 M Tris-HCl, NADH co-substrate, room temperature

Protein	Km [1]	kcat [1]	kcat/Km [1]	Km [2]	kcat [2]	kcat/Km [2]
B1	18.2 ± 10.5 µM	376 ± 119 s⁻¹	2.07e+07 ± 4.5e+06 M⁻¹ s⁻¹			
B2				46.1 ± 7.3 µM	920 ± 77 s⁻¹	1.99e+07 ± 300000 M⁻¹ s⁻¹
B3	103.5 ± 25.9 µM	927 ± 152 s⁻¹	9e+06 ± 400000 M⁻¹ s⁻¹			
